Data on 4 molecules can be found in US20210087291A1 (Hoffmann-La Roche, published 2021).

In test [1] the target is T1, murine FolR1 ECD-AcTev-Fcknob-Avitag + Fc hole, biotinylated monomeric Fc fusion (murine, UniProt P0DOX5 223-449 = IgG part).
T1 construct: also called muFolR1; murine FolR1-Fc
Put plainly: SPR ProteOn, Fab analyte.
Procedure: (§1) Immobilization of antigens (ligand): Recombinant antigens were diluted with PBST (10 mM phosphate, 150 mM sodium chloride pH 7.4, 0.005% Tween 20) to 10 μg/ml, then injected at 30 μl/minute in vertical orientation. Injection of analytes: For ‘one-shot kinetics’ measurements, injection direction was changed to horizontal orientation, two-fold dilution series of purified Fab (varying concentration ranges) were injected simultaneously along separate channels 1-5, with association times of 150 or 200 s, and dissociation times of 200 or 600 s, respectively. Buffer (PBST) was injected along the sixth channel to provide an “in-line” blank for referencing. Association rate constants (kₒₙ) and dissociation rate constants (koff) were calculated using a simple one-to-one Langmuir binding model in ProteOn Manager v3.1 software by simultaneously fitting the association and dissociation sensorgrams. The equilibrium dissociation constant (KD) was calculated as the ratio koff/kₒₙ.

Test [2] concerns the target T2, human FolR3 ECD-AcTev-Fcknob-Avi tag + Fc hole, biotinylated monomeric Fc fusion (human, UniProt P0DOX5 223-449 = IgG part).
T2 construct: also called huFolR3; FolR3-Fc
Put plainly: SPR ProteOn, Fab analyte.
Procedure: as §1

Test [3] addresses T3, cynomolgus FolR1 ECD-AcTev-Fcknob-Avi tag + Fc hole, biotinylated monomeric Fc fusion (cynomolgus, UniProt P0DOX5 223-449 = IgG part).
T3 construct: also called cyFolR1; cyno FolR1-Fc
Put plainly: SPR ProteOn, Fab analyte.
Procedure: as §1

The target of test [4] is T4, human FolR1 ECD-AcTev-Fcknob-Avi tag + Fc hole, biotinylated monomeric Fc fusion (human, UniProt P0DOX5 223-449 = IgG part).
T4 construct: also called huFolR1; huFolR1-Fc
Put plainly: SPR ProteOn, Fab analyte.
Procedure: as §1

For test [5], the target named is T5, human FolR2 ECD-AcTev-Fcknob-Avi tag + Fc hole, biotinylated monomeric Fc fusion (human, UniProt P0DOX5 223-449 = IgG part).
T5 construct: also called huFolR2; FolR2-Fc
Nature of the test: SPR ProteOn, Fab analyte.
Procedure: as §1

Test [6] has as its target T2, human FolR3 ECD-AcTev-Fcknob-Avi tag + …. Nature of the test: SPR, IgG single injection.
In test [7] the target is T3, cynomolgus FolR1 ECD-AcTev-Fcknob-Avi …. Nature of the test: SPR, IgG single injection. Background: In SPR one partner is held on a chip, and binding of the other changes the refractive index at the surface.
Test [8] addresses T4, human FolR1 ECD-AcTev-Fcknob-Avi tag + …. Nature of the test: SPR, IgG single injection.
Test [9] addresses T5, human FolR2 ECD-AcTev-Fcknob-Avi tag + …. Put plainly: SPR, IgG single injection.

B1: 9D11 Fab (Fab, V domains shown)
VH: QVQLVQSGAEVKKPGASVKVSCKASGYTFTSYYMHWVRQAPGQGLEWMGIINPSGGPTSYAQKFQGRVTMTRDTSTSTVYMELSSLRSEDTAVYYCARGDFAWLDYWGQGTLVTVSS
VL: not shown
What is called Kd is the concentration at which binding is half-saturated. Regarding B1, the binding result in test [1], in test [2] and in test [5] was “no binding” in each case. For the same molecule, the figures for the Kd in test [3] and in [4] were 5.29 nM and 8.64 nM, respectively.

B2: 14E4 IgG (antibody, V domains shown)
VH: not shown
VL: EIVLTQSPGTLSLSPGERATLSCRASQSVSSSYLAWYQQKPGQAPRLLIYGASSRATGIPDRFSGSGSGTDSTLTISRLEPEDFAVYYCQQPTSSPITFGQGTKVEIK
notes: human IgG1
Take B2: the binding result in [6], in test [7], in [8] and in test [9] was “no binding (tested: 500 nM)” each time.

B3: 14E4 Fab (Fab, V domains shown)
VH: not shown
VL: EIVLTQSPGTLSLSPGERATLSCRASQSVSSSYLAWYQQKPGQAPRLLIYGASSRATGIPDRFSGSGSGTDSTLTISRLEPEDFAVYYCQQPTSSPITFGQGTKVEIK
Consider B3, for which the binding result in test [2], in [3], in [4] and in [5] was “no binding” throughout.

B4: 36F2 Fab (Fab, V domains shown)
VH: QVQLVQSGAEVKKPGASVKVSCKASGYTFTSYYMHWVRQAPGQGLEWMGIINPSGGSTSYAQKFQGRVTMTHDTSTSTVYMELSSLRSEDTAVYYCARSFFTGFHLDYWGQGTLVTVSS
VL: EIVLTQSPGTLSLSPGERATLSCRASQSVSSSYLAWYQQKPGQAPRLLIYGASSRATGIPDRFSGSGSGTDFTLTISRLEPEDFAVYYCQQYTNEHYYTFGQGTKVEIK
B4: the values for the Kd in test [1], in [3] and in test [4] were 737 nM, 1640 nM and 1810 nM, respectively. For the same molecule, the binding result in test [2] and in [5] was “no binding” in each case.
